From article PMC10201449, “Structures, activity and mechanism of the Type IIS restriction endonuclease PaqCI”

T1: PaqCI Type IIS restriction endonuclease (Paucibacter aquatile, UniProt A0A2N8KYF9 1-510)
T1 sequence: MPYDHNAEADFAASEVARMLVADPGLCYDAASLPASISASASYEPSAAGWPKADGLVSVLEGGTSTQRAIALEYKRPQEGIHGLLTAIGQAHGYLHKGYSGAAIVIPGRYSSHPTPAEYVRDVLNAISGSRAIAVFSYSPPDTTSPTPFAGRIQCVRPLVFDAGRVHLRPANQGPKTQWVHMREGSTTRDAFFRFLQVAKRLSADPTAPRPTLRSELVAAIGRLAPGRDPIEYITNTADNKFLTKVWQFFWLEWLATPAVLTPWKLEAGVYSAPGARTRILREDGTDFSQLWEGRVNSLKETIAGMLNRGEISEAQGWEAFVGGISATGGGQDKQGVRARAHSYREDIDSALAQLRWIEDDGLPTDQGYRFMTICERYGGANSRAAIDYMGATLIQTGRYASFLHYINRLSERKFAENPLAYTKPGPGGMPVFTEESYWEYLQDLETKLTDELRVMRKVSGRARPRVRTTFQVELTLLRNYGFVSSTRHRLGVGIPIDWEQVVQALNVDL


Tests used:
[1] = target: PaqCI, Type IIS restriction endonuclease of Paucibacter aquatile (Paucibacter aquatile); experiment: crystal structure; DNA-free apo-enzyme; 20 to 25% PEG 3350, 0.2 M magnesium chloride, 0.1 M Bis-Tris pH 5.5; 2.5 Å; two subunits in the asymmetric unit, tetramer by a crystallographic two-fold axis
[2] = target: PaqCI, Type IIS restriction endonuclease of Paucibacter aquatile (Paucibacter aquatile); experiment: cryo-EM structure; PaqCI with 50 bp DNA duplex (1:1.2 molar ratio) in 10 mM calcium chloride, SEC peak in 30 mM BisTris pH 6.5, 100 mM sodium chloride; 3.15 Å map, no symmetry imposed
[3] = target: PaqCI, Type IIS restriction endonuclease of Paucibacter aquatile (Paucibacter aquatile); experiment: cryo-EM structure; DNA-free PaqCI, 0.1-0.4 mg/ml; 3.0 Å global resolution map, no symmetry imposed; crystallographic model docked
[4] = target: PaqCI, Type IIS restriction endonuclease of Paucibacter aquatile (Paucibacter aquatile); experiment: SEC; DNA-free PaqCI on Superdex 200 10/300 GL; 20 mM HEPES pH 7.5, 150 mM sodium chloride, 5 mM magnesium chloride, 1 mM DTT
[5] = target: T1, PaqCI Type IIS restriction endonuclease; experiment: SEC co-elution; 10 mM Ca2+; 1:1.2 protein monomer:DNA; SEC/cryo-EM: 30 mM BisTris pH 6.5, 100 mM NaCl; complex formed with 10 mM CaCl2; temperature not stated; details: protein: recombinant; tags: none (untagged); chain copies: 4; 50 complementary bp; four duplexes per tetramer

stoichiometry N [1] | stoichiometry N [2] | stoichiometry N [3] | stoichiometry N [4] | Molecule | binding result [5]
4 | 4 | 4 | 4 | PaqCI, Type IIS restriction endonuclease of Paucibacter aquatile (enzyme) | 
 |  |  |  | 50 bp PaqCI target duplex (dsDNA) DNA 1: CCAGTCGGGATCAGCTCTCTTTCTTCCCACCTGCGCCACGCGAGGTACTC DNA 2: GAGTACCTCGCGTGGCGCAGGTGGGAAGAAAGAGAGCTGATCCCGACTGG | binds
